We go through two molecules from patent publication US6900299 (UNIVERSITY OF SOUTH FLORIDA, dated 2005).

For experiment [1], the target named is human ICAM-1 on cells (HEp-2, NHBE, A549, U937) (human) (UniProt P05362). Nature of the experiment: cell-based or functional assay.
Experiment [2] has as its target T1, human ICAM-1 fused to the VP16 activation domain (pVP16 vector) (herpes simplex virus; human, UniProt P05362 28-532).
T1 construct: Order of the parts follows the usual pVP16 layout; also called ICAM-1 (two-hybrid construct)
The experiment in a line: mammalian two-hybrid assay in NIH3T3 cells, CAT reporter (CAT activity similar to the basal level).

Chain of human ICAM-1 on cells (HEp-2, NHBE, A549, U937) (human) (P05362 28-532): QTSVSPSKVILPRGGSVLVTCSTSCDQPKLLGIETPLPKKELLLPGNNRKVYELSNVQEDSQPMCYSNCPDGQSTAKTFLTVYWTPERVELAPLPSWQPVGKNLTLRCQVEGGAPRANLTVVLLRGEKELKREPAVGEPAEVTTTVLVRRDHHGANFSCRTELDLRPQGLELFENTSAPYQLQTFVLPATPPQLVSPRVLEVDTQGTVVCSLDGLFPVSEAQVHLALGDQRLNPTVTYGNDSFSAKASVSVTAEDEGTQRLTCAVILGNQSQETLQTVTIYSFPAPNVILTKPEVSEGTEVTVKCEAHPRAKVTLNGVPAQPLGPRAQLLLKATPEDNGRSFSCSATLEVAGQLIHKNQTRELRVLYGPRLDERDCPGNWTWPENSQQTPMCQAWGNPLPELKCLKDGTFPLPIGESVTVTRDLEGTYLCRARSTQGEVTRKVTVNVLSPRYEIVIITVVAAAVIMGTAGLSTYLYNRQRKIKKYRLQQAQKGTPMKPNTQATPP
T1 sequence (P05362 28-532 limits assumed): as the sequence (P05362 28-532) above

In the case of “mouse anti-human ICAM-1 mAb (BBA 4) (R & D Systems) (antibody)”, in experiment [1], the inhibition of RSV N gene mRNA in HEp-2 cells (RT-PCR) at 400 µg of mAb/ml came to 70%; the inhibition of RSV infection of HEp-2 cells (immunofluorescence, percent infected cells) at 400 µg/ml was determined as 96%; the reduction in RSV infection of A549 cells at 400 µg of mAb/ml came to 67%; the reduction in RSV infection of NHBE cells at 400 µg of mAb/ml stood at 54%.

B1: RSV-G fused to the GAL4 DNA-binding domain (pM vector) (other)
chain: MKLLSSIEQACDICRLKKLKCSKEKPKCAKCLKNNWECRYSPKTKRSPLTRAHLTEVESRLERLEQLFLLIFPREDLDMILKMDSLQDIKALLTGLFVQDNVNKDAVTDRLASVETDMPLTLRQHRISATSSSEESSNKGQRQLTVSMSKNKDQRTAKTLERTWDTLNHLLFISSCLYKLNLKSVAQITLSILAMIISTSLIIAAIIFIASANHKVTPTTAIIQDATSQIKNTTPTYLTQNPQLGISPSNPSEITSQITTILASTTPGVKSTLQSTTVKTKNTTTTQTQPSKPTTKQRQNKPPSKPNNDFHFEVFNFVPCSICSNNPTCWAICKRIPNKKPGKKTTTKPTKKPTLKTTKKDPKPQTTKSKEVPTTKPTEEPTINTTKTNIITTLLTSNTTGNPELTSQMETFHSTSSEGNPSPSQVSTTSEYPSQPSSPPNTPRQ
notes: also called cDNA construct expressing G; RSV-G gene product
B1: in experiment [2], the binding result is reported as “no binding”.
